From publication doi:10.1101/2022.08.30.505904

How the values were obtained:
[1] = biological target: CBKP2 complex (PaCgi121/PaBud32/PaKae1/PaPcc2) (Pyrococcus abyssi | Pyrococcus abyssi GE5) (UniProt Q9UXT7); assay: SEC-SAXS
[2] = biological target: CBKP1 complex (PaCgi121/PaBud32/PaKae1/PaPcc1) (Pyrococcus abyssi) (UniProt Q9UXT7); assay: SEC-SAXS
[3] = biological target: PaPcc2 with C-terminal hexa-histidine tag (Pyrococcus abyssi GE5); assay: SEC

Substance: CBKP2 complex (PaCgi121/PaBud32/PaKae1/PaPcc2) (from UniProt Q9UXT7 1-324)
- stoichiometry N [1]: 2

Substance: CBKP1 complex (PaCgi121/PaBud32/PaKae1/PaPcc1) (from UniProt Q9UXT7 1-324)
- stoichiometry N [2]: 2

Substance: PaPcc2 with C-terminal hexa-histidine tag (natural protein)
- stoichiometry N [3]: 2
